Here are results for one substance from article PMC5397143.

In the experiment the target is RctB, wild-type full-length (residues 1–658) (Vibrio cholerae). Description: native MS.

Substance “RctB, wild-type full-length (residues 1–658) (natural protein)” displayed a stoichiometry N of 2.

By stoichiometry N is commonly meant a count of units in the complex or per binding partner.
